From US20260077071A1, “Targeted Delivery of Theranostic Agents” (Peter MacCallum Cancer Institute, priority 2022, published 2026)
Square brackets hold non-standard residues; d marks the D form. Peptide text beside a SMILES is read from it. * marks the point of attachment. DOTA = O=C(O)CN1CCN(CC(=O)O)CCN(CC(=O)*)CCN(CC(=O)O)CC1; NMe1Nal = CN[C@@H](Cc1cccc2ccccc12)C(=O)O; NMeNle = CCCC[C@H](NC)C(=O)O; Sar = CNCC(=O)O

Columns and labels:
[1] = tested on: A431 CCK2R cells; set-up: species or system BALB/c nu/nu mice; settings: mouse, in vivo, iv
Procedure: The diagnostic efficacy of Compounds [^68Ga]Ga-1-4 and [^68Ga]Ga-Cmp ex-2 was assessed using static small animal PET imaging and quantifying biodistribution studies. Female BALB/c nu/nu mice (age 8-10 weeks) were inoculated subcutaneously on the right flank with 3×10^6 A431 CCK2R cells in PBS:Matrigel (1:1). Mice were weighed and tumours measured twice weekly using electronic callipers with tumour volume (mm^3) calculated as length×width×height×π/6. Mice were assigned to imaging and/or biodistribution groups (tumour volumes: 50-500 mm^3). The respective Ga-68 labelled tracer (4-5 MBq, 100 μL, 13.7-14.2 pmoles) was mixed with vehicle solution (75 μL, DMSO:Tween 80:water, 2:2:6 v/v/v) and then administered to six mice intravenously via tail vein injection. Three mice were euthanised for biodistribution 1 h post injection and selected tissues were excised, weighed and counted using a Capintec (Captus 4000e) gamma counter. Three mice were anaesthetised using 1.5% isoflurane and imaged at 1 and 2 h with a G8 Small Animal PET/CT scanner (Perkin Elmer/Sofie Biosciences). A 10 min static PET scan was acquired, followed immediately by a CT scan. PET images were acquired using the G8 acquisition engine software and reconstructed using a 3D maximal likelihood and expectation maximization (ML-EM) algorithm. PET images were analysed using VivoQuant software, version 3.0 (inviCRO Imaging Services and Software) to quantify maximum standardised uptake value in regions of interest (SUVmax). After imaging the 2 h time point the mice were harvested for biodistribution analysis as above.
For blocking CCK2R binding a solution of N-[(3R)-2,3-Dihydro-1-[2-(2-methylphenyl)-2-oxoethyl]-2-oxo-5-phenyl-1H-1,4-benzodiazepin-3-yl]-N′-(3-methylphenyl)-urea (YM022; Sigma Aldrich) was used. […]

[2] = in vitro; assay type: in vitro ADME, mouse
Procedure: Drug detoxification, drug metabolism and metabolic stability are important determinants of the efficacy of theranostic candidates in clinical settings. To assess metabolic stability, radiolabelled Compounds [^68Ga]Ga-1-4 and comparative example-2 ([^68Ga]Ga-Cmp ex-2) were challenged by incubation in either human serum, mouse liver or kidney homogenates and HEPES buffer as a negative control. Duplicate samples (750-900 pmol/mL) were incubated at 37° C. with pooled human serum, 15% mouse kidney homogenate, 30% mouse liver homogenate or 20 mM HEPES, pH 7.3 (control). Human blood was collected and serum prepared using SSTII advance vacutainer tubes according to the manufacturer's instructions (Becton Dickinson, New Jersey, USA). Mouse kidney and liver homogenates were prepared by washing the tissues in ice-cold HEPES buffer, pH 7.3 and placing them in pre-chilled tubes containing HEPES buffer and 2.38 mm metal beads (Mo-Bio Laboratories, Hilden, Germany). Tissues were homogenised using the PowerLyzer24 homogeniser (Qiagen, Hilden, Germany) according to the manufacturer's instructions. Ga-68 radiolabelled peptides were incubated with the various lysates at 37° C. and samples were collected at 15, 30, 60 and 90 min. Reactions were terminated by addition of an equal volume of acetonitrile and centrifugation for 2 min at 15,000 rpm. Supernatants were diluted in water before being analysed by HPLC using a Kinetex C18 XB column (5 μm 4.6×150 mm), eluted at 1.5 mL/min of gradient 20-60% MeCN in water containing 0.1% formic acid over 7 min.

[3] = LogD7.4 determination (PBS pH 7.4 / n-octanol); assay type: physicochemical; settings: PBS/Octanol mix, n = 5
Procedure: The distribution coefficients (LogD7.4) of radiolabelled compounds [^68Ga]Ga-1-4, and [^68Ga]Ga-Cmp ex-2 were assayed by measuring radioactivity distribution in the aqueous phase (phosphate buffer pH7.4) and the organic phase (n-octanol). To determine the distribution coefficient (LogD), Ga-68 radiolabelled compounds were diluted to 20 pmol/mL in PBS (pH 7.4) and an equal volume of n-octanol was added. The mixture was vortexed vigorously for 10 cycles of 1 min at room temperature before being centrifuged for 6 min to separate the two phases. Equal volumes from each phase were aliquoted into individual counting tubes and analysed for 1 min using the Perkin Elmer 2480 Wizard2™ gamma counter (PerkinElmer, Massachusetts, USA). The distribution coefficient was calculated using the following equation [formula]

Compound	tumour to kidney ratio [1]	metabolism in kidney homogenates [2]	metabolism in liver homogenates [2]	LogD7.4 [3]	renal / kidney uptake [1]	tumour uptake [1]
CCCC[C@@H](C(=O)N[C@@H](CC(=O)O)C(=O)N(C)[C@@H](Cc1cccc2ccccc12)C(N)=O)N(C)C(=O)[C@H](Cc1c[nH]c2ccccc12)NC(=O)CN(C)C(=O)[C@H](Cc1ccc(O)cc1)NC(=O)[C@H](C)NC(=O)[C@@H](CCC(=O)O)NC(=O)[C@@H](CCC(=O)O)NC(=O)[C@@H](CCC(=O)O)NC(=O)[C@@H](C)NC(=O)[C@@H](CCC(=O)O)NC(=O)[C@@H](CCC(=O)O)NC(=O)CN1CCN(CC(=O)O)CCN(CC(=O)O)CCN(CC(=O)O)CC1 [[^68Ga]Ga-4, metal not drawn] ({DOTA}-[dE][dE][dA][dE][dE][dE]AY[Sar]W[NMeNle]D[NMe1Nal]-NH2)	best tumour to kidney ratio	no observable metabolites detected	no observable metabolites detected	−2.59 ± 0.02		
CCCC[C@@H](C(=O)N[C@@H](CC(=O)O)C(=O)N(C)[C@@H](Cc1cccc2ccccc12)C(N)=O)N(C)C(=O)[C@H](Cc1c[nH]c2ccccc12)NC(=O)CN(C)C(=O)[C@H](Cc1ccc(O)cc1)NC(=O)[C@H](C)NC(=O)[C@@H](CCC(=O)O)NC(=O)[C@@H](CCC(=O)O)NC(=O)[C@@H](CCC(=O)O)NC(=O)[C@@H](CCC(=O)O)NC(=O)[C@@H](CCC(=O)O)NC(=O)[C@@H](CCC(=O)O)NC(=O)CN1CCN(CC(=O)O)CCN(CC(=O)O)CCN(CC(=O)O)CC1 [[^68Ga]Ga-Cmp ex-2, metal not drawn, reference compound] ({DOTA}-[dE][dE][dE][dE][dE][dE]AY[Sar]W[NMeNle]D[NMe1Nal]-NH2)		no observable metabolites detected	no observable metabolites detected	−2.97 ± 0.13	highest renal uptake	best tumour uptake
